Data set [1] deals with GAL4-DBD-fused RAD52 (10xQ) (human) (UniProt P43351). Description: two-hybrid; yeast; GAL4 DBD-fused RAD52 with NLS-GAL4 AD fusions; lacZ reporter, liquid beta-galactosidase assay, activity relative to RAD52 (Wt).
The target of the next data set is T1, RAD52 wild type (Homo sapiens, UniProt P43351 1-418).
T1 sequence: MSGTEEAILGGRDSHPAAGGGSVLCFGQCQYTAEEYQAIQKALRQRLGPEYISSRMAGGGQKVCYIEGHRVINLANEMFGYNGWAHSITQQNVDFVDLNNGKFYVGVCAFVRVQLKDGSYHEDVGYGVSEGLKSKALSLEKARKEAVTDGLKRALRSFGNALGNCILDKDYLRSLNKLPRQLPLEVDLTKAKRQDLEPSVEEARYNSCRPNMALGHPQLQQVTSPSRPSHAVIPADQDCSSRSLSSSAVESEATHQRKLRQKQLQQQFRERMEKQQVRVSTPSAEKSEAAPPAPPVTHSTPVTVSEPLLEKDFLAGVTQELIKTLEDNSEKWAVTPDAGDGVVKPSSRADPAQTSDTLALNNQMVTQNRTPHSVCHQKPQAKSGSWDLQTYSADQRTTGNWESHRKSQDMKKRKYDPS
Briefly: EMSA; 10 uM nucleotides DNA; 16 uL reactions, Cy5-50-mer 10 uM in nucleotides; 5X buffer contains 0.1 M HEPES-NaOH pH 7.5 (20 mM final if 1X); remaining components, salt and temperature cut off in the material. The note with it: protein: recombinant; tags: C-terminal His6 construct (pET21a) or pET15b construct; label: 5'-Cy5; single strand, 50 nt. (In general: In EMSA bound probe runs differently from free probe, usually more slowly.)

The molecule “GAL4-DBD-fused RAD52 (10xQ) (from UniProt P43351 1-418) (natural protein)” gave a fold change of beta-galactosidase activity against RAD52 (Wt) in data set [1] of 1.7 fold.
As to TCGCCATCAACTAACGATTCTGTCAAAAACTGACGCGTTGGATGAGGAGA (ssDNA) [FX174-50-1 (oligo 1)], in the data set with RAD52 wild type, the binding result was “binds”.

The values are drawn from PMC5891081.
